Results on eight sequences are retold here after the supplement of paper PMC11246515.

± gives the standard deviation of the averaged measurements.

The nature of this data set: total protein half-life in vivo (active degradation + dilution); higher = more stable protein.
Where [1] appears, read: E. coli NCM3722 delta-clpP delta-lon delta-hslV, growth: N-lim chemostat, doubling time 6 h.
Where [2] appears, read: E. coli NCM3722 delta-hslV, growth: N-lim chemostat, doubling time 6 h.
The mark [3] stands for this setting: E. coli NCM3722 delta-lon, growth: N-lim chemostat, doubling time 6 h.
The mark [4] stands for this setting: E. coli NCM3722 delta-smpB, growth: N-lim chemostat, doubling time 6 h.
Where [5] appears, read: wild type E. coli NCM3722, growth: C-lim chemostat, doubling time 3 h.
Setting [6] is: wild type E. coli NCM3722, growth: C-lim chemostat, doubling time 6 h.
[7] abbreviates: wild type E. coli NCM3722, growth: N-lim chemostat, doubling time 6 h.
Setting [8] is: wild type E. coli NCM3722, growth: N-lim chemostat, doubling time 12 h.
[9] abbreviates: wild type E. coli NCM3722, growth: P-lim chemostat, doubling time 6 h.
The mark [10] stands for this setting: wild type E. coli NCM3722, growth: P-lim chemostat, doubling time 12 h.
Where [11] appears, read: E. coli NCM3722 delta-clpP, growth: N-lim chemostat, doubling time 6 h.
Where [12] appears, read: wild type E. coli NCM3722, growth: C-lim chemostat, doubling time 12 h.

For the sequence “MIKNLPQIVLLNIVGLALFLSWYIPVNHGFWLPIDADIFYFFNQKLVESKAFLWLVALTNNRAFDGCSLLAMGMLMLSFWLKENAPGRRRIVIIGLVMLLTAVVLNQLGQALIPVKRASPTLTFTDINRVSELLSVPTKDASRDSFPGDHGMMLLIFSAFMWRYFGKVAGLIALIIFVVFAFPRVMIGAHWFTDIIVGSMTVILIGLPWVLLTPLSDRLITFFDKSLPGKNKHFQNK”, the “total protein half-life in vivo” value under setting [1] is 6.44 ± 0.069 h; the “total protein half-life in vivo” value under setting [2] worked out at 5.96 h; the “total protein half-life in vivo” value under setting [3] turned out to be 5.5 ± 0.33 h; the “total protein half-life in vivo” value under setting [4] was determined as 4.98 ± 0.75 h; the “total protein half-life in vivo” value under setting [5] was above 4 h; the “total protein half-life in vivo” value under setting [6] was determined as 5.87 ± 0.17 h. Further, the “total protein half-life in vivo” value came out at 5.91 h under setting [7], 9.71 h under setting [8], 5.76 ± 0.068 h under setting [9] and 14.4 h under setting [10].
On to “MFIPSIYLHQQLHYCKTAILNWSRKMALSRQKFTFERLRRFTLPEGKKQTFLWDADVTTLACRATSGAKAFVFQSVYAGKTLRMTIGNINDWKIDDARAEARRLQTLIDTGIDPRIAKAVKIAEAESLQAESRKTKVTFSVAWEDYLQELRTGISAKTKRPYSTRYIADHINLSSRGGESKKRGQGPTSAGPLASLLNLPLSELTPDYIAAWLSTERQNRPTVTAHAYRLLRAFIKWSNYQKKYQGIIPGDLAQDYNVRKMVPVSASKADDCLQKEQLKSWFSAVRSLNNPIASAYLQVLLLTGARREEIASLRWSDVDFKWSSMRIKDKIEGERIIPLTPYVSELLNVLAQSPNSDVNKEGWVFRSNSKSGKIIEPRSAHNRALVLAELPHISLHGLRRSFGTLAEWVEVPTGIVAQIMGHKPSALAEKHYRRRPLDLLRKWHEKIETWILNEAGITIKNNVDMR”, for which the “total protein half-life in vivo” value by setting is: under setting [1], 4.69 ± 0.43 h; under setting [11], 1.01 ± 0.058 h; under setting [2], 1.22 ± 0.19 h; under setting [3], 3.07 ± 0.74 h; under setting [4], 0.692 ± 0.011 h; under setting [5], 0.877 ± 0.072 h. For the same sequence, the “total protein half-life in vivo” value came to 1.51 ± 0.091 h under setting [6]; 3.01 ± 0.11 h under setting [12]; 1.19 ± 0.41 h under setting [7]; 1.97 ± 0.42 h under setting [8]; 0.516 h under setting [9]; 2.03 ± 0.4 h under setting [10].
In the case of “MLMITSFANPRVAQAFVDYMATQGVILTIQQHNQSDVWLADESQAERVRAELARFLENPADPRYLAASWQAGHTGSGLHYRRYPFFAALRERAGPVTWVMMIACVVVFIAMQILGDQEVMLWLAWPFDPTLKFEFWRYFTHALMHFSLMHILFNLLWWWYLGGAVEKRLGSGKLIVITLISALLSGYVQQKFSGPWFGGLSGVVYALMGYVWLRGERDPQSGIYLQRGLIIFALIWIVAGWFDLFGMSMANGAHIAGLAVGLAMAFVDSLNARKRK”, the “total protein half-life in vivo” value came out at 5.94 ± 0.09 h under setting [1]; 7.254 ± 0.027 h under setting [11]; 4.85 h under setting [4]; 5.67 h under setting [6]; 7.94 h under setting [12]; 11.7 h under setting [8]. For the same sequence, the “total protein half-life in vivo” value reads like this: under setting [9], 5.84 h; under setting [10], 11.6 ± 1.8 h.
In the case of “MTHLPHWWQNGVIYQIYPKSFQDTTGSGTGDLRGVIQHLDYLHKLGVDAIWLTPFYVSPQVDNGYDVANYTAIDPTYGTLDDFDELVTQAKSRGIRIILDMVFNHTSTQHAWFREALNKESPYRQFYIWRDGEPETPPNNWRSKFGGSAWRWHAESEQYYLHLFAPEQADLNWENPAVRAELKKVCEFWADRGVDGLRLDVVNLISKDPRFPEDLDGDGRRFYTDGPRAHEFLHEMNRDVFTPRGLMTVGEMSSTSLEHCQRYAALTGSELSMTFNFHHLKVDYPGGEKWTLAKPDFVALKTLFRHWQQGMHNVAWNALFWCNHDQPRIVSRFGDEGEYRVPAAKMLAMVLHGMQGTPYIYQGEEIGMTNPHFTRITDYRDVESLNMFAELRNDGRDADELLAILASKSRDNSRTPMQWSNGDNAGFTAGEPWIGLGDNYQQINVEAALADDSSVFYTYQKLIALRKQEAILTWGNYQDLLPNSPVLWCYRREWKGQTLLVIANLSREIQPWQAGQMRGNWQLVMHNYEEASPQPCAMNLRPFEAVWWLQK”, the “total protein half-life in vivo” value is, setting by setting: under setting [5], 2.39 ± 0.28 h; under setting [6], 1.98 ± 0.55 h; under setting [12], 2.82 ± 0.88 h; under setting [10], 5.64 h.
Regarding “MNKYTINDITRASGGFAMLAVDQREAMRMMFAAAGAPAPVADSVLTDFKVNAAKALSPYASAILVDQQFCYRQVVEQNAIAKSCAMIVAADEFIPGNGIPVDSVVIDRKINPLQIKQDGGKALKLLVLWRSDEDAQQRLDMVKEFNELCHSHGLVSIIEPVVRPPRRGDKFDREQAIIDAAKELGDSGADLYKVEMPLYGKGPQQELLCASQRLNDHINMPWVILSSGVDEKLFPRAVRVAMTAGASGFLAGRAVWASVVGLPDNELMLRDVCAPKLQQLGDIVDEMMAKRR”, the “total protein half-life in vivo” value under setting [1] was determined as 5.2 ± 0.61 h; the “total protein half-life in vivo” value under setting [11] was 4.38 ± 0.96 h; the “total protein half-life in vivo” value under setting [2] amounted to 4.42 ± 0.41 h; the “total protein half-life in vivo” value under setting [3] was found to be 5.52 ± 0.98 h; the “total protein half-life in vivo” value under setting [4] was determined as 4.09 ± 0.52 h; the “total protein half-life in vivo” value under setting [5] is 2.93 ± 0.18 h. Besides, the “total protein half-life in vivo” value runs as follows: under setting [6], 6.51 ± 1.8 h; under setting [12], 8.63 ± 1.5 h; under setting [7], 4.19 ± 0.58 h; under setting [8], 6.3 ± 0.93 h; under setting [9], 5.05 ± 0.15 h; under setting [10], 10.2 ± 0.62 h.
Consider “MKKTRTANLHHLYHEPLPENLKLTPKVEVDNVHQRQTTDVYEHALTITAWQQIYDQLHPGKFHGEFTEILLDDIQVFREYTGLALRQSCLVWPNSFWFGIPATRGEQGFIGSQCLGSAEIATRPGGTEFELSTPDDYTILGVVLSEDVITRQANFLHNPDRVLHMLRNQSALEVKEQHKAALWGFVQQALATFCENPENLHQPAVRKVLGDNLLMAMGAMLEEAQPMVTAESISHQSYRRLLSRAREYVLENMSEPVTVLDLCNQLHVSRRTLQNAFHAILGIGPNAWLKRIRLNAVRRELISPWSQSMTVKDAAMQWGFWHLGQFATDYQQLFSEKPSLTLHQRMREWG”, for which the “total protein half-life in vivo” value under setting [1] came to 5.53 ± 0.77 h, the “total protein half-life in vivo” value under setting [6] was 1.42 h, the “total protein half-life in vivo” value under setting [8] was 2.75 h and the “total protein half-life in vivo” value under setting [9] is 1.29 h.
For “MYQDLIRNELNEAAETLANFLKDDANIHAIQRAAVLLADSFKAGGKVLSCGNGGSHCDAMHFAEELTGRYRENRPGYPAIAISDVSHISCVGNDFGFNDIFSRYVEAVGREGDVLLGISTSGNSANVIKAIAAAREKGMKVITLTGKDGGKMAGTADIEIRVPHFGYADRIQEIHIKVIHILIQLIEKEMVK”, the “total protein half-life in vivo” value under setting [1] stood at 4.5 ± 0.5 h; the “total protein half-life in vivo” value under setting [11] stood at 4.44 ± 0.26 h; the “total protein half-life in vivo” value under setting [2] turned out to be 4.63 ± 0.36 h; the “total protein half-life in vivo” value under setting [3] turned out to be 5.19 ± 0.35 h; the “total protein half-life in vivo” value under setting [4] was determined as 4.26 ± 0.082 h; the “total protein half-life in vivo” value under setting [5] came to 3.04 ± 0.14 h. For the same sequence, the “total protein half-life in vivo” value reads like this: under setting [6], 5.89 ± 0.46 h; under setting [12], 11 ± 0.45 h; under setting [7], 4.37 ± 0.08 h; under setting [8], 7.07 ± 0.52 h; under setting [9], 5.73 ± 0.15 h; under setting [10], 11.13 ± 0.11 h.
As for “MATHERRVVFFDLDGTLHQQDMFGSFLRYLLRRQPLNALLVLPLLPIIAIALLIKGRAARWPMSLLLWGCTFGHSEARLQTLQADFVRWFRDNVTAFPLVQERLTTYLLSSDADIWLITGSPQPLVEAVYFDTPWLPRVNLIASQIQRGYGGWVLTMRCLGHEKVAQLERKIGTPLRLYSGYSDSNQDNPLLYFCQHRWRVTPRGELQQLE [P0AD42]”, the “total protein half-life in vivo” value under setting [1] stood at 3.86 ± 0.9 h; the “total protein half-life in vivo” value under setting [11] is 2.84 h; the “total protein half-life in vivo” value under setting [2] worked out at 2.383 ± 0.018 h; the “total protein half-life in vivo” value under setting [3] worked out at 2.07 h; the “total protein half-life in vivo” value under setting [4] was 2.7 ± 0.1 h; the “total protein half-life in vivo” value under setting [5] worked out at 2.27 h. The “total protein half-life in vivo” value reads like this: under setting [6], 3.96 h; under setting [12], 9.2 ± 0.12 h; under setting [7], 2.62 ± 0.42 h; under setting [8], 4.48 ± 0.64 h; under setting [9], 1.82 h; under setting [10], 3.39 h.
